A word on the IC50: it is the concentration that gives 50% inhibition. Higher therefore signals a need for much substance.

Like-named read-outs stand apart in the source and are kept apart here. No end group written: not given here.

Assay [1] has as its target CGRP receptor of pig coronary artery (pig). Description: cell-based or functional assay.
Assay [2] shares this target. Kind of assay: displacement of 125I-[His10]-h-αCGRP from pig coronary artery membranes. (Loss of bound radioactivity is the signal in a displacement assay; it reports binding, not function.)
Assay [3] shares this target. Described as above. This is another data set of the same source.

h-α-CGRP (8-37) (peptide): in assay [1], the KB from inhibition of h-α-CGRP-induced relaxation of pig coronary artery rings (Schild analysis) was 970 nM. As for dibenzyl-h-α-CGRP(8-37) (peptide), in assay [2], the half-inhibitory concentration (IC50) was determined as 0.22 nM. For the molecule N-α-benzyl-h-α-CGRP (8-37) (peptide), the 50% inhibitory concentration (IC50) in assay [2] is 1.58 nM. As to N-α-benzoyl-h-α-CGRP (8-37) (peptide), the 50% inhibitory concentration (IC50) in assay [2] is 0.27 nM.

B1: N-α-benzyl-h-β-CGRP (8-37) (peptide, UniProt P10092 89-118, looked up)
chain: VTHRLAGLLSRSGGMVKSNFVPTNVGSKAF
modifications: Calcitonin gene-related peptide 2 N-alpha-benzyl
With B1, the IC50 in assay [3] stood at 3.62 nM.

B2: h-β-CGRP (8-37) (peptide)
chain: VTHRLAGLLSRSGGMVKSNFVPTNVGSKAF
modifications: ends and bridges not checked
As to B2, the IC50 in assay [3] stood at 20.6 nM.

B3: N-α-benzoyl-h-β-CGRP (8-37) (peptide, UniProt P10092 89-118, looked up)
chain: VTHRLAGLLSRSGGMVKSNFVPTNVGSKAF
modifications: Calcitonin gene-related peptide 2 N-alpha-benzoyl
With B3, the IC50 in assay [3] amounted to 0.63 nM.

B4: dibenzyl-h-β-CGRP(8-37) (peptide, UniProt P10092 89-118, looked up)
chain: VTHRLAGLLSRSGGMVKSNFVPTNVGSKAF
modifications: Calcitonin gene-related peptide 2 N,N-dibenzyl
In assay [3], B4 registered an IC50 of 0.73 nM.

Source of the values: patent US20020068814A1.
